Results from publication PMC4889959 (Nucleic Acids Research, 2016).

B1: SLX4BTB wild type, yeast two-hybrid fusion [human] / itself (parent complex)
chain: QDKHPDRGGRTLLSLGLLVADFGAMVNNPHLSDVQFQTDSGEVLYAHKFVLYARCPLLIQYVNNEGFSAVEDGVLTQRVLLGDVSTEAARTFLHYLYTADTGLPPGLSSELSSLAHRFGVSELVHLCEQVPIATDS

Variants of: B1
Experiment: yeast two-hybrid β-galactosidase assay; ONPG as substrate; SLX4BTB-F681R-F708R-AD + SLX4BTB-F681R-F708R-BD; parent: 710; read off a plot

Question: How did the response turn out when QDKHPDRGGRTLLSLGLLVADRGAMVNNPHLSDVQFQTDSGEVLYAHKRVLYARCPLLIQYVNNEGFSAVEDGVLTQRVLLGDVSTEAARTFLHYLYTADTGLPPGLSSELSSLAHRFGVSELVHLCEQVPIATDS [chain 1 F22R, chain 1 F49R] was run?
Answer: ~2.5 OD420 reading

Variants of: B1
Experiment: yeast two-hybrid β-galactosidase assay; ONPG as substrate; SLX4BTB-F708R-AD + SLX4BTB-F708R-BD; parent: 710; read off a plot

Question: With QDKHPDRGGRTLLSLGLLVADFGAMVNNPHLSDVQFQTDSGEVLYAHKRVLYARCPLLIQYVNNEGFSAVEDGVLTQRVLLGDVSTEAARTFLHYLYTADTGLPPGLSSELSSLAHRFGVSELVHLCEQVPIATDS [chain 1 F49R] as the variant, how does the response read?
Answer: ~3 OD420 reading
